Data taken from the RNAGym collection of RNA variant scans (doi:10.7554/elife.80360).

B1: Hairpin Ribozyme (parent)
chain: GUCCUCUUUCACGUGCGCGUGAAAGAGAGAAGUGAACCAGAGAAACACACGUUGUGGUAUAUUACCUGGUA

Variants of: B1
Test: self-cleavage, relative activity (ratio to wild type); higher = more cleavage; co-transcriptional

Row | Variant | self-cleavage
1 | U7C A59U | 0.178
2 | U7A U8G | 0.925
3 | U7G C18U | 1.07
4 | U7G C18G | 0.739
5 | U7C U20G | 0.751
6 | C6U U20A | 0.764
7 | C6U U20C | 0.806
8 | C6G A59U | 0.192
9 | U7G A61G | 0.0998
10 | C6G A31U | 0.0803
11 | C6G A31C | 0.0766
12 | U7G G13A | 0.704
13 | U7G A30U | 0.0317
14 | C6G G57U | 0.238
15 | U7C C12A | 0.516
16 | U7C A49U | 0.135
17 | C6A U60A | 0.541
18 | C6A U7C | 0.609
19 | U7A U33C | 0.151
20 | C6U U52G | 0.797
21 | C6U A11C | 0.411
22 | C6U A11G | 0.816
23 | C6U A11U | 0.578
24 | U7A A45G | 0.204

Row | Variant | self-cleavage
25 | U7A A45U | 0.261
26 | C6G G21C | 0.125
27 | C6G G21U | 0.181
28 | C6G C46U | 0.143
29 | C6G C46A | 0.153
30 | C6U A36C | 0.705
31 | C6U A36U | 0.54
32 | U7G A45G | 0.102
33 | U7G A45C | 0.0973
34 | U7A U55C | 0.175
35 | U7A U55A | 0.152
36 | U7A U55G | 0.205
37 | U7A U53G | 0.688
38 | C6U U9G | 0.438
39 | C6U U9C | 0.369
40 | U7C G29A | 0.204
41 | U7C G29U | 0.178
42 | C6U G29C | 0.13
43 | U7G U14A | 0.666
44 | U7G U14G | 0.729
45 | U7G U14C | 0.701
46 | C6U G40A | 0.344
47 | U7G U9A | 0.68
48 | U7G U9G | 0.599

Row | Variant | self-cleavage
49 | C6G A64G | 0.365
50 | C6G A64U | 0.105
51 | C6G A64C | 0.123
52 | C6U U60G | 0.502
53 | C6U U60A | 0.732
54 | C6G A71C | 0.855
55 | U7C G19C | 0.683
56 | U7C G19A | 0.559
57 | C6U G17U | 0.859
58 | U7G A26C | 0.0432
59 | C6U U7A | 0.515
60 | C6G U60C | 0.618
61 | C6U A45G | 0.135
62 | C6U A45U | 0.194
63 | C6G A35U | 0.464
64 | C6A U33C | 0.0869
65 | C6U G21C | 0.597
66 | U7G A39G | 0.377
67 | U7G A39U | 0.421
68 | U7A C66G | 0.146
69 | U7A G40U | 0.18
70 | U7A G40C | 0.166
71 | C6U U62C | 0.188
72 | C6U C48G | 0.116

Row | Variant | self-cleavage
73 | U7A G13A | 0.962
74 | C6U U63A | 0.207
75 | U7A U60A | 0.893
76 | U7C A64U | 0.0591
77 | C6A U8A | 0.319
78 | C6G G42U | 0.113
79 | U7C G40C | 0.156
80 | U7G U33A | 0.131
81 | U7G U33C | 0.113
82 | U7C G27U | 0.222
83 | C6G A36G | 0.768
84 | U7A G19C | 0.711
85 | U7A G19U | 0.581
86 | U7G G34U | 1.22
87 | C6U G54U | 0.371
88 | C6U G54A | 0.59
89 | U7G G21C | 0.332
90 | C6U C65A | 0.776
91 | C6U A22G | 0.796
92 | C6G U70A | 0.399
93 | C6G U70G | 0.361
94 | C6A U14G | 0.499
95 | U7A C16G | 0.779
96 | U7A C16U | 0.85

Row | Variant | self-cleavage
97 | C6U A26G | 0.31
98 | C6U A26C | 0.29
99 | U7A C18U | 0.8
100 | U7C G32A | 0.0904
101 | U7A G69A | 0.315
102 | U7A G69C | 0.196
103 | C6G C65A | 0.527
104 | C6U A23G | 0.768
105 | U7C C38U | 0.211
106 | U7C C38A | 0.185
107 | U7C A26C | 0.275
108 | U7C A26G | 0.667
109 | C6G G54C | 0.265
110 | C6G U53G | 0.454
111 | U7A G56A | 0.182
112 | U7G C12U | 0.753
113 | U7G C12A | 0.732
114 | U7C G69U | 0.179
115 | C6G G40U | 0.103
116 | U7A A35G | 0.796
117 | U7A A41U | 1.28
118 | C6G A47G | 0.0875
119 | C6G A47U | 0.13
120 | C6U A24U | 0.781

Row | Variant | self-cleavage
121 | U7G A28U | 0.498
122 | U7C A43G | 0.0623
123 | U7C A39U | 0.465
124 | U7C A39C | 0.583
125 | U7C A39G | 0.263
126 | U7C G17C | 0.527
127 | U7C U53G | 0.686
128 | U7C U53A | 1.3
129 | U7A C50U | 0.364
130 | U7G G27U | 0.226
131 | U7G G27C | 0.152
132 | C6U G56A | 0.193
133 | U7A G54U | 0.589
134 | U7G A31U | 0.216
135 | U7G A31G | 0.503
136 | C6A U67G | 0.173
137 | U7C G51U | 1.1
138 | U7C G51C | 0.489
139 | U7G C46A | 0.0994
140 | C6G G15C | 0.545
141 | C6U G57A | 0.117
142 | C6U G57U | 0.324
143 | U7C C18A | 0.973
144 | U7C C18U | 1.06

Row | Variant | self-cleavage
145 | U7C C18G | 0.732
146 | U7C G56U | 0.188
147 | U7G G25U | 0.17
148 | U7G G25C | 0.253
149 | U7A A64C | 0.194
150 | U7A A23C | 0.894
151 | U7G G19A | 0.618
152 | C6G A39C | 0.299
153 | C6G A39U | 0.164
154 | U7C U62A | 0.288
155 | U7C C37U | 0.494
156 | C6U A30C | 0.205
157 | C6U A30G | 0.128
158 | U7C A41G | 0.845
159 | U7G A59C | 0.0534
160 | U7C A30G | 0.0858
161 | C6G G27A | 0.135
162 | C6G G27C | 0.174
163 | C6G G27U | 0.161
164 | U7G U52G | 0.779
165 | U7C A35C | 0.612
166 | C6G U20C | 0.368
167 | C6G U20G | 0.248
